# Experimental data: the supplement of paper PMC10126150
# ± gives the standard deviation of the averaged measurements.
# Test system: ATP
# Test: switch fluorescence ratio, 500 uM ATP over buffer (Cy3 cluster intensity, sum of 5 cycles each) (fold (ratio)); higher = stronger signal-on switching upon ATP binding; sequences stand for … in TCGTCGGCAGCGTCAGATGTGTATAAGAGACAGTTTTTTTTTTTTTTTTTTTTTTTTT…TC
# Conditions: aptamer strand: ATP DNA aptamer (quencher-CACCTGGGGGAGTATTGCGGAGGAAGG + anchor), 100 nM annealed; ATP concentration: 500 uM
# Outline: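 Five buffer/ATP imaging cycles were run on Cy3-labelled switching-strand clusters on a modified Illumina MiSeq flow-cell, with NaOH stripping and re-annealing between cycles. In each cycle, clusters annealed to 100 nM quencher-labelled ATP aptamer were imaged in selection buffer, then after 15 min with 500 uM ATP at 22 °C. Per cluster, the fluorescence ratio is summed target-cycle over summed buffer-cycle Cy3 intensity, averaged per switch-domain sequence. Only clusters within 100-1000 RFU were kept.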
# 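Also: ATP exposure 15 min at 22 °C before imaging.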
row,Sequence,switch fluorescence ratio
1,TCAGACTTGC,1 ± 0.035
2,TCAGAGACCC,1.006 ± 0.009
3,TCAGATATTG,0.992 ± 0.04
4,TCAGATTGGC,1.04 ± 0.12
5,TCAGCCTAGG,1.02 ± 0.023
6,TCAGCGTGGG,1.04 ± 0.054
7,TCAGCTGCAA,4.21 ± 0.32
8,TCAGGAGGGC,0.999 ± 0.016
9,TCAGGAGTTT,1.04 ± 0.011
10,TCAGGATGTT,0.987 ± 0.026
11,TCAGGATTAG,1.02 ± 0.02
12,TCAGGATTGT,0.967 ± 0.031
13,TCAGGGACCG,1.03 ± 0.026
14,TCAGGGAGTT,0.969 ± 0.015
15,TCAGGGATT,1.01 ± 0.057
16,TCAGGGCATG,1.04 ± 0.043
17,TCAGGGCTGT,0.994 ± 0.029
18,TCAGGGGAAC,1.06 ± 0.07
19,TCAGGGGCCC,1.07 ± 0.084
20,TCAGGGGGAT,1.02 ± 0.028
21,TCAGGGGGGA,1 ± 0.04
22,TCAGGGGTTT,1.3 ± 0.53

row,Sequence,switch fluorescence ratio
1,TCAGGGTAGG,1.04 ± 0.033
2,TCAGGGTCAG,1.007 ± 0.0063
3,TCAGGGTGC,1.204 ± 0.0036
4,TCAGGGTGTC,1.33 ± 0.17
5,TCAGGGTGTG,1.019 ± 0.0067
6,TCAGGTGGAG,1.03 ± 0.041
7,TCAGGTGTGA,1.27 ± 0.025
8,TCAGGTGTGT,1.36 ± 0.11
9,TCAGGTTTTG,0.98 ± 0.013
10,TCAGTAACGT,1.02 ± 0.013
11,TCAGTAAGTT,0.995 ± 0.021
12,TCAGTACGAC,1.2 ± 0.021
13,TCAGTAGTGA,1.06 ± 0.051
14,TCAGTATAGG,1.01 ± 0.021
15,TCAGTATTTT,1.018 ± 0.0047
16,TCAGTCAAGG,0.9745 ± 0.0044
17,TCAGTCATCT,1 ± 0.013
18,TCAGTGAAAC,0.988 ± 0.021
19,TCAGTGTTTT,1 ± 0.04
20,TCAGTTTTTC,1.013 ± 0.0022
21,TCATAAAACC,1.09 ± 0.11
22,TCATAAGGGC,1.01 ± 0.12

row,Sequence,switch fluorescence ratio
1,TCATACGTCG,1.03 ± 0.036
2,TCATAGGGTG,1.03 ± 0.1
3,TCATATTCTA,0.9849 ± 0.0019
4,TCATATTGAT,0.984 ± 0.051
5,TCATATTGCG,0.983 ± 0.019
6,TCATCAGTCT,0.995 ± 0.039
7,TCATCCTAGC,1.19 ± 0.062
8,TCATCGGGGT,0.994 ± 0.023
9,TCATCTACAG,1.02 ± 0.013
10,TCATCTCTGG,0.992 ± 0.024
11,TCATCTTGTC,1.01 ± 0.04
12,TCATGAAAAG,0.997 ± 0.013
13,TCATGAACAT,1.001 ± 0.0082
14,TCATGAAGGA,0.964 ± 0.018
15,TCATGACCCA,1.03 ± 0.018
16,TCATGATGTA,0.9848 ± 0.0061
17,TCATGGAGGT,0.96 ± 0.03
18,TCATGGGAGA,0.984 ± 0.04
19,TCATGGGCCG,1.33 ± 0.43
20,TCATGGTACG,1.06 ± 0.022
21,TCATGGTCCC,1.02 ± 0.018
22,TCATGGTTG,1.01 ± 0.01

row,Sequence,switch fluorescence ratio
1,TCATGTACCG,1.05 ± 0.044
2,TCATGTGCGG,0.9639 ± 0.0022
3,TCATTAAGGT,0.995 ± 0.03
4,TCATTAGGGG,0.994 ± 0.041
5,TCATTATTCG,0.985 ± 0.027
6,TCATTTCGA,0.988 ± 0.02
7,TCATTTGGAA,0.99 ± 0.025
8,TCATTTGTTG,1.01 ± 0.035
9,TCATTTTTGC,0.979 ± 0.052
10,TCCAAAGAGA,0.97 ± 0.039
11,TCCAAAGAGG,0.997 ± 0.018
12,TCCAACTCCA,1.11 ± 0.0039
13,TCCAAGTGTG,1.03 ± 0.021
14,TCCAATTGCG,0.953 ± 0.021
15,TCCACATCAA,1.197 ± 0.0086
16,TCCACGTTGG,1.01 ± 0.0067
17,TCCAGAAAGG,1.014 ± 0.0031
18,TCCAGATAGG,0.997 ± 0.048
19,TCCAGGGCGG,1.06 ± 0.022
